The target in the assay is HLA-A*2401 (human). The assay is described as follows: inhibition of 125I probe peptide binding to purified HLA.
As for “CEA peptide, position 448, 8 amino acids”, the relative binding ratio came out at 0.0005. For “CEA peptide, position 390, 10 amino acids” the value was 0.0002; for “CEA peptide, position 27, 10 amino acids”, 0.03; for “CEA peptide, position 137, 8 amino acids”, 0.0006. For “CEA peptide, position 356, 8 amino acids” the value was 0.0009; for “CEA peptide, position 42, 11 amino acids”, -0.0005; for “CEA peptide, position 248, 10 amino acids”, 0.0002. For “CEA peptide, position 118, 8 amino acids” the value was 0.001; for CEA peptide, position 94, 8 amino acids, 0.0003.

The values above are taken from US20040146519A1.
